The supplement of paper PMC9170038

System: MS2 coat protein
Assay: apparent KD of MS2 coat protein; higher = weaker reporter binding
Settings: Eterna round: R107
Outline: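 The designed RNA switches were transcribed on-chip from Illumina sequencing clusters. In 100 mM Tris-HCl pH 7.5, 80 mM KCl and 4 mM MgCl2, without or with constant ligand, they were titrated with SNAP-549-labelled MS2 coat protein from 0.7 or 1.5 nM to 3 µM in twofold steps. Apparent KD is the per-design median of normalised cluster binding-curve fits.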

[1] = input ligand: theophylline 20 uM
[2] = input ligand: tryptophan 2.4 mM
[3] = input ligand: theophylline 2 mM

Sequence | apparent KD of MS2 coat protein (input ligand: arginine 13.2 mM) | apparent KD of MS2 coat protein (input ligand: none) | apparent KD of MS2 coat protein [1] | apparent KD of MS2 coat protein [2] | apparent KD of MS2 coat protein [3]
GGAGGUACCUGAAGGAGCGACAUGAGGAUCACCCAUGUCUCCCGUUAUGGGAGUUCUUUAGGUCAGGUAGGUCGCAGGUACCUCC [#1 Exclusion - Arginine B Attempt #3 (Inspired by Omei)] | 13.7 nM | 88.2 nM | – | – | –
CCCGACGAGCCUGAGAUUAAGUAAGCGGAUACCAGAGAUAGGUAGCUCCCUUGGCAGCCGUGGACAUGAGGAUCACCCAUGUCAC [theeternabot_exclusion_MS2_Theo_A_22] | 11.4 nM | – | 13.5 nM | 10.9 nM | –
ACAUGAGGAUCACCCAUGUAUUACCGGGAAGGAGCGCGUAAGGACGCAGGUAGGUCGCUCGGCGUCGUGCUGUAAAGCACGACGA [#1 Same State - Arginine A Attempt #24 (HarryS)] | 67.7 nM | 14.9 nM | 18.6 nM | 15.3 nM | 14.9 nM
ACGUAAAGCAGAAGGAGCGUCUUCAAAUUACAUGAGGAUCACCCAUGUUUUGUGAUCAUAUGACAGGUAGGUCGCUGAAGUACGA [JR_SSArginiB_Sub003] | 58.3 nM | 71.7 nM | 97.5 nM | 66.5 nM | 86.4 nM
UUAAUCUUUAUUGAAAACAAUAAAGCAGAAGGAGCGUGAUAAAACACAGGUAGGUCGCUGAAGGGAACAUGAGGAUCACCCAUGU [AstrosSSArgA#13] | 36.4 nM | 26.6 nM | 32 nM | 24.1 nM | 35.1 nM
GCGCUAUUUAUUGAUACCAGAUACAGGAAUCACAUGAGGAUCACCCAUGUGGAAUGAAGGAUCCCUUGGCAGCAAUAGUCAAAAU [theeternabot_sameState_MS2_Theo_B_9] | 16.6 nM | – | 19.6 nM | 19.9 nM | –
UGUAUGGGAACAUGAGGAUCACCCAUGUGGCGAGGACCGGUACGGCCGCCACUCGAGCAGCAAGCGUGUAUGACGCUGCUGCAUG [ss-trypA-0mod] | 225 nM | 312 nM | 377 nM | 136 nM | 324 nM
UUUUAAAGCAUGGCGUAUCGGAAAACCGAUACCAGUACAGAAAUGUACCCUUGGCAGCGGAAUUUUACAUGAGGAUCACCCAUGU [Ex Theophylline A 1] | 14.9 nM | – | 19.7 nM | 12.7 nM | –
ACACGAAGCUGAAGGAGCGUGGUACAAGUUUUUACAUGAGGAUCACCCAUGUUUCGUCAAUCACAGGUAGGUCGCAGAUGCGUGA [#08 Same State - Arginine B] | 32.1 nM | 29.2 nM | 42.5 nM | 25.9 nM | 36.6 nM
GUUGCACAUGAGGAUCACCCAUGUUUGGAUACCAGUCUCUGUAAUGACCCUUGGCAGCCACCAUAGACGCUUGAGUAGAGCCUGA [theeternabot_sameState_MS2_Theo_A_21] | 14.2 nM | – | 19.4 nM | 15.5 nM | –
GGCACAUAGUCGGCCGCCACUAGGGUGUAGUGGAAUAACAUGAGGAUCACCCAUGUAUUUGGGACUAGGACCGGGACUAUGUGCC [Leopard] | 27.2 nM | – | 40.4 nM | – | 30 nM
AGAGUCAGACAAAAGUCUGGCUCAGCCGAAGGAGCGUCCGAAAGGACAGGUAGGUCGCGGUUACCUGAGGAUCACCCAGGUUCCU [ArgAS 24 #OpenEnded #AlternativeMS2] | 53.8 nM | 139 nM | 86.9 nM | 91.5 nM | 115 nM
AGCGAUAUGCAUGAUACCAGCUACAUGAGGAUCACCCAUGUGCGUCAGUAAUGACUGUGUAGCCCUUGGCAGCAUAGAGCAUGUA [Exclusion - Theophylline B (Freestyle 12)] | 29.5 nM | – | 47.2 nM | 34.7 nM | –
UACGCUAGGGCGGCCGCCACUCGGACAUGAGGAUCACCCAUGUCGAUUAAUUGAAGGACAUGAAUGAGGACCGGGCUAAGCUAGG [Same State - Tryptophan B / B] | 20.8 nM | 29.4 nM | 38.9 nM | 23.4 nM | 27.1 nM
CGUGAUCCCUGUGAUACCAGAAGUACAUGAGGAUCACCCAUGUCAAACACAAAACCAAGCUUCCCUUGGCAGCAUAGUCGUUAAG [Esmaenbiza] | 67.1 nM | – | 240 nM | 224 nM | –
UACUUGCUGACGGCCGCCACUAGAACAUGAGGAUCACCCAUGUAUUCUAGUCGUCAUGGGUGGACUAGGACCGGGUCAGCAAGAU [(Trp1)-(Ms2)-(T)'-(M)'-(Trp2)_Design8] | 30.7 nM | 33.8 nM | 41.8 nM | 192 nM | 34.7 nM
AGCGUUCGGUUUAUGCCGGACAAUGGGUGACGAGGACCGGUACGGCCGCCACUCGGGCGCCCGGUUACAUGAGGAUCACCCAUGU [Oresrile] | 74.3 nM | – | 190 nM | – | 200 nM
UCUGGGUGCGCAAGGACCUGGAGUUGCGAUACCAGCACGGUAACGUGCCCUUGGCAGCGCACAUGAGGAUCACCCAUGUGGUGUU [#1 Exclusion - Theophylline A Attempt #18 (HarryS)] | 65.6 nM | – | 247 nM | 204 nM | –
AAAUACAUGAGGAUCACCCAUGUCAAUAAUCGAGGACCGGUACGGCCGCCACUCGAUCGGCCAAGAAAAUGAAAGAUGAUCUCUA [theeternabot_sameState_MS2_Trp_A_8] | 18.1 nM | – | 37.5 nM | – | 27.4 nM

Sequence | apparent KD of MS2 coat protein (input ligand: arginine 13.2 mM) | apparent KD of MS2 coat protein (input ligand: none) | apparent KD of MS2 coat protein [1] | apparent KD of MS2 coat protein [2] | apparent KD of MS2 coat protein [3]
UGAUGGAACGGAAGGAGCGUGUAAGAACAAGAACAUGAGGAUCACCCAUGUAUUAAUUUAACACAGGUAGGUCGCCGAGUUAUUG [11.F] | 9.42 nM | 16.9 nM | 42.1 nM | 15.9 nM | 28.6 nM
AUAUGAUCAUAUGAUACCAGAAAUGGUAUUCCUUUGUUUCUUACAUGAGGAUCACCCAUGUUCCCUUGGCAGCAUAUGAUCAUAU [ETHB #2] | 159 nM | – | 221 nM | 238 nM | –
CAACAAGUAACUGAUACCAGUGUACUGACAUGAGGAUCACCCAUGUUGGGUUUUGUUGUACACCCUUGGCAGCAGAAUCUUGUUG [AstrosExyTheB#21] | 44.7 nM | – | 67.7 nM | 50 nM | –
UUCUUUGACGAUCUGGGUUUACCAGAUCGACGAGGACCGGUACGGCCGCCACUCGUGUUUUCUUUACAUGAGGAUCACCCAUGUU [#16Tryptophan A Same State] | 16.2 nM | – | 22.6 nM | – | 19.1 nM
GUAUGGAAACAUACUAGGGUAUCGUGAGAUACCAGUACAGAAAUGUACCCUUGGCAGCUCGCGCAUACAUGAGGAUCACCCAUGU [Ex Theophylline A 9] | 19.4 nM | – | 26.9 nM | 19.7 nM | –
GGGUGUGAUCCGGAUACCAGUGAACAUGAGGAUCACCCAUGUGACCUGAGAUCGGCUCUUCACCCUUGGCAGCCGCGGUCGCAGG [Same State Theophylline B GF14] | 11.4 nM | 11.5 nM | 18.6 nM | 10 nM | 10.7 nM
GCACGACAUGAGGAUCACCCAUGUGCAGAUACCAGUAAUGUAUGUUACCCUUGGCAGCUGAGUAGGUCUGGAGGGCUAUAGGUUU [Same State Theophylline A GF13] | 15.4 nM | 13.9 nM | 17.2 nM | 14.1 nM | 15.6 nM
UAUCGCGCGGCGGCCGCCACUAAUGGCAGAUCUGUCGACUAACAUGAGGAUCACCCAUGUCUAACUAGGACCGGGCCCAAGUUGU [theeternabot_sameState_MS2_Trp_B_7] | 30.5 nM | – | 66.2 nM | – | 59 nM
ACAUGAGGAUCACCCAUGUACAUGAGGGAAGGAGCGGUACAUGUGCCAGGUAGGUCGCCCAACAGCAUCAGCCAUGUACAUCAGC [ppsmullin] | 38.1 nM | 113 nM | 117 nM | 49.7 nM | 83.5 nM
ACAUGAGGAUCACCCAUGUCAUGAGGUUCACGAGGACCGGUACGGCCGCCACUCGGGCUUCGGAUCACGGAUGUACAUGAUGAUC [kmullin1] | 45.4 nM | – | 92.2 nM | – | 123 nM
UGUCAAUCGCCGGAUACCAGCCUAACUGAAGGAAAUCUAAACAUGAGGAUCACCCAUGUAGGCCCUUGGCAGCCGAGUAAGUACA [theeternabot_exclusion_MS2_Theo_B_15] | 33.9 nM | – | 65.4 nM | 35.7 nM | –
AGAGAGGCGCAUGAUACCAGCUUGGCCUAACAUGAGGAUCACCCAUGUCAAUGGGCCUUAAGCCCUUGGCAGCAUAGGGUGUCCU [Xeestixexe] | 72.7 nM | 72.1 nM | 186 nM | 85.9 nM | 25.9 nM
CUGUACAUCUCGGCCGCCACUGCAACAUGUAGAGAUGUAUAUGUACAUGAGGAUCACCCAUGUGGCAGGACCGGGAGGUGUGCAG [SSTryp B #27] | 167 nM | 147 nM | 128 nM | 111 nM | 206 nM
AGAUUCGACACGGCCGCCACUUGUGGUGGAGGGUCUUUAGUCACACAUGAGGAUCACCCAUGUACAAGGACCGGGUGUUGAGUCU [XTryp B #23] | 19.1 nM | 19.3 nM | 14.2 nM | 36.3 nM | 25.4 nM
GGGUCAGGCGCGGCCGCCACUGCGGUGAUGUGACAUGAGGAUCACCCAUGUUGUCAUGUGGCACAUAGGACCGGGUGCCUGGCCC [#1 Exclusion - Tryptophan B Attempt #6 (HarryS)] | 28.3 nM | – | 50.2 nM | – | 33.8 nM
AAACAUGAGGAUCACCCAUGUUGAGGAUCACGAGGACCGGUACGGCCGCCACUCGACAUGAGGAUCACCCAUGUGAGGAUCACCC [Same State - Tryptophan A #1] | 52.5 nM | – | 214 nM | – | 337 nM
UUAGUAACGACGGCCGCCACUGAUUUUGGACAUGAGGAUCACCCAUGUAAAGAUCCUAGAAUGGUCAGGACCGGGUCUGAUAAUG [Exclusion Tryptophane B GF4] | 35 nM | 35.3 nM | 40 nM | 64.4 nM | 54 nM
GGCUAGGUCUCGGCCGCCACUGCUACAUGAGGAUCACCCAUGUACCUGGGCGGUCGCUCCCUCGGCAGGACCGGGAGACAUUCGU [Onarbeisan] | 9.2 nM | – | 13.8 nM | – | 12.5 nM
